B1: Adagio protein 1 (Arabidopsis thaliana (Mouse-ear cress)), Q94BT6 (parent)
chain: MEWDSGSDLSADDASSLADDEEGGLFPGGGPIPYPVGNLLHTAPCGFVVTDAVEPDQPIIYVNTVFEMVTGYRAEEVLGGNCRFLQCRGPFAKRRHPLVDSMVVSEIRKCIDEGIEFQGELLNFRKDGSPLMNRLRLTPIYGDDDTITHIIGIQFFIETDIDLGPVLGSSTKEKSIDGIYSALAAGERNVSRGMCGLFQLSDEVVSMKILSRLTPRDVASVSSVCRRLYVLTKNEDLWRRVCQNAWGSETTRVLETVPGAKRLGWGRLARELTTLEAAAWRKLSVGGSVEPSRCNFSACAVGNRVVLFGGEGVNMQPMNDTFVLDLNSDYPEWQHVKVSSPPPGRWGHTLTCVNGSNLVVFGGCGQQGLLNDVFVLNLDAKPPTWREISGLAPPLPRSWHSSCTLDGTKLIVSGGCADSGVLLSDTFLLDLSIEKPVWREIPAAWTPPSRLGHTLSVYGGRKILMFGGLAKSGPLKFRSSDVFTMDLSEEEPCWRCVTGSGMPGAGNPGGVAPPPRLDHVAVNLPGGRILIFGGSVAGLHSASQLYLLDPTEDKPTWRILNIPGRPPRFAWGHGTCVVGGTRAIVLGGQTGEEWMLSELHELSLASYLT
partner: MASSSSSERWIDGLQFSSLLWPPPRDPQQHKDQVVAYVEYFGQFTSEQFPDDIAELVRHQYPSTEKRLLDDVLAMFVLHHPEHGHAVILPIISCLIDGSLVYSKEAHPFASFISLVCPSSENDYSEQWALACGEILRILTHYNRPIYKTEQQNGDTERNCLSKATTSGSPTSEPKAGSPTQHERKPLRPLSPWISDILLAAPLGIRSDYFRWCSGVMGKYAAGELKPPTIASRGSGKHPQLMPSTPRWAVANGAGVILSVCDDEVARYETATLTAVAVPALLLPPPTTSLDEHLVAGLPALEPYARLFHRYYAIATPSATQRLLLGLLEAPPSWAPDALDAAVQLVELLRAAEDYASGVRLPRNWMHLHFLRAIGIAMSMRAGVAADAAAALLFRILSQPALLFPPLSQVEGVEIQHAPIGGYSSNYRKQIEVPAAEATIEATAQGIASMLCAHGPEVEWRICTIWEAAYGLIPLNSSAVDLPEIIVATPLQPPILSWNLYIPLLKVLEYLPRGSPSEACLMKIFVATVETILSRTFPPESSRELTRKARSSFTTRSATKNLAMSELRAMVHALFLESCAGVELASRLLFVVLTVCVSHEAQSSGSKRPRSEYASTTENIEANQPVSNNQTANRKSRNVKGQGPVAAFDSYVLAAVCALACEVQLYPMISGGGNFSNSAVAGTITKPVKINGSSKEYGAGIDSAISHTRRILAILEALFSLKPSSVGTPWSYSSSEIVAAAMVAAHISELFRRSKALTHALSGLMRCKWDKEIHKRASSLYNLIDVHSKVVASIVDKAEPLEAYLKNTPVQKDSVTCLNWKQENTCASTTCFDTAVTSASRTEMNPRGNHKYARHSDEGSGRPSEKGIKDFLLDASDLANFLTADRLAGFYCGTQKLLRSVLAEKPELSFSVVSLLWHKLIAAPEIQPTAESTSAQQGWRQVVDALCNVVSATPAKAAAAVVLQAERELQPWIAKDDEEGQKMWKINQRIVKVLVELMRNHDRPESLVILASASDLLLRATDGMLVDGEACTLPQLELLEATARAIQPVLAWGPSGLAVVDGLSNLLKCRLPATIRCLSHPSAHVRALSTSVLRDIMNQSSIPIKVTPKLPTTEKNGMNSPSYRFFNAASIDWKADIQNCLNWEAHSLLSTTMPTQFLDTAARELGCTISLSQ

Variants of: B1
Details: with gigan_arath GI

| Variant | effect of a mutation on the interaction |
| --- | --- |
| G46E | disrupting interaction strength |
| C82A | decreasing interaction strength |
| G119D | decreasing interaction strength |
